Assay [1] addresses T1, rHuman P-Cadherin/Fc Chimera, CF (R&D Systems Cat#861-PC) (human, UniProt P22223 108-654).
T1 construct: Bought Fc chimera; Fc part of the bought chimera not given
Briefly: MSD Multispot ECL, antigen spotted on plate, Fab at 30 nM; blank spot 213.

Assay [2] has as its target T2, rHuman Erythropoietin R/Fc Chimera, CF (R&D Systems Cat#963-ER) (human, UniProt P19235 25-250).
T2 construct: Bought Fc chimera; also called EPO R/Fc; Epo R; Fc part of the bought chimera not given
T2 sequence (looked up): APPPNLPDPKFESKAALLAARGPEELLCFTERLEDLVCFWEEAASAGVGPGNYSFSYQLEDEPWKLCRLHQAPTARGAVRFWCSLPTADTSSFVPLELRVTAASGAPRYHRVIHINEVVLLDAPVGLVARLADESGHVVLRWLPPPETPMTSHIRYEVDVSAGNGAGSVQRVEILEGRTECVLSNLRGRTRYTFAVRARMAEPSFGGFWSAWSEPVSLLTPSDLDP
The description is as above.

The target in assay [3] is T3, Recombinant Human DLL4 (R&D Systems Cat#1506-D4/CF) (human, UniProt Q9NR61 27-524).
T3 construct: Bought recombinant protein; also called rHuman DLL4; delta-like protein 4
Put plainly: MSD Multispot ECL, antigen spotted on plate, Fab at 480 nM; blank spot 362.

In assay [4] the target is T4, rHuman Notch-1/Fc Chimera, CF (R&D Systems Cat#3647-TK) (human, UniProt P46531 19-526).
T4 construct: Bought Fc chimera; Fc part of the bought chimera not given
The assay is described as above.

For assay [5], the target named is T5, rHuman CD44/Fc Chimera, CF (R&D Systems Cat#3660-CD) (human, UniProt P16070 21-220).
T5 construct: Bought Fc chimera; Fc part of the bought chimera not given
The description is as above.

Assay [6] concerns the target T1, rHuman P-Cadherin/Fc Chimera, CF (R&D …). The description is as above.
Assay [7] concerns the target T2, rHuman Erythropoietin R/Fc Chimera, CF …. The description is as above.
Assay [8] has as its target T6, rHuman Erythropoietin R/Fc Chimera, CF (R&D Systems Cat#963-ER) (human, UniProt P19235 25-250).
T6 construct: Bought Fc chimera; also called EPO R/Fc; EPO R; Fc part of the bought chimera not given
T6 sequence (looked up): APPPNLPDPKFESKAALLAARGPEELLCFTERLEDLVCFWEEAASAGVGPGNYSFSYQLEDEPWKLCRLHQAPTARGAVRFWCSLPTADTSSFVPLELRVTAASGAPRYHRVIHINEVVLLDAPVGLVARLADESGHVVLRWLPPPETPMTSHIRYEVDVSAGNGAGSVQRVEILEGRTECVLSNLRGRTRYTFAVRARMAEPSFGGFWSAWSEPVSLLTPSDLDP
Put plainly: Multispot ECL (MSD) titration; antigen spotted on plate; Fab 14.5 nM; blank spot 117.

The target of assay [9] is T7, Recombinant Human DLL4 (R&D Systems Cat#1506-D4/CF) (human, UniProt Q9NR61 27-524).
T7 construct: Bought recombinant protein; also called delta-like protein 4; rHuman DLL4
The assay is described as above.

Assay [10] addresses T8, rHuman ErbB2/Fc Chimera, CF (R&D Systems Cat#1129-ER) (human, UniProt P04626 23-652).
T8 construct: Bought Fc chimera; also called human epidermal growth factor 2 receptor; Fc part of the bought chimera not given
The assay is described as above.

The target of assay [11] is T9, rHuman Notch-1/Fc Chimera, CF (R&D Systems Cat#3647-TK) (human, UniProt P46531 19-526).
T9 construct: Bought Fc chimera; Fc part of the bought chimera not given
The description is as above.

In assay [12] the target is T10, rHuman CD44/Fc Chimera, CF (R&D Systems Cat#3660-CD) (human, UniProt P16070 21-220).
T10 construct: Bought Fc chimera; Fc part of the bought chimera not given
The assay is described as above.

Assay [13] deals with T11, rHuman IGF-1 sR (IGF-1 sR), CF (R&D Systems Cat#391-GR) (human, UniProt P08069 31-932).
T11 construct: Bought soluble receptor; also called insulin-like growth factor-1 soluble receptor
The description is as above.

The target in assay [14] is T12, rHuman P-Cadherin/Fc Chimera, CF (R&D Systems Cat#861-PC) (human, UniProt P22223 108-654).
T12 construct: Bought Fc chimera; Fc part of the bought chimera not given
The assay is described as above.

The target in assay [15] is T13, rHuman ErbB2/Fc Chimera, CF (R&D Systems Cat#1129-ER) (human, UniProt P04626 23-652).
T13 construct: Bought from R&D Systems; also called human epidermal growth factor 2 receptor (ErbB2); not shown: Fc of the bought chimera
Put plainly: MSD multispot ECL, antigen spotted on plate, Fab 22 nM; blank spot 289.

Assay [16] concerns the target T14, rHuman EGF R/Fc Chimera, CF (R&D Systems Cat#344-ER) (human, UniProt P00533 25-645).
T14 construct: Bought from R&D Systems; also called epidermal growth factor receptor (EGF R); not shown: Fc of the bought chimera
Described as above.

Assay [17] has as its target T15, rHuman HGF R/c-MET/Fc Chimera, CF (R&D Systems Cat#358-MT/CF) (human, UniProt P08581 25-932).
T15 construct: Bought from R&D Systems; also called HGF R/Fc; hepatocyte growth factor receptor (HGF R/c-Met); not shown: Fc of the bought chimera
The assay is described as above.

Assay [18] addresses T16, rHuman CD44/Fc Chimera, CF (R&D Systems Cat#3660-CD) (human, UniProt P16070 21-220).
T16 construct: Bought from R&D Systems; not shown: Fc of the bought chimera
Described as above.

In assay [19] the target is T17, rHuman P-Cadherin/Fc Chimera, CF (R&D Systems Cat#861-PC) (human, UniProt P22223 108-654).
T17 construct: Bought from R&D Systems; not shown: Fc of the bought chimera
The assay is described as above.

T15 sequence (P08581 25-932, change not shown): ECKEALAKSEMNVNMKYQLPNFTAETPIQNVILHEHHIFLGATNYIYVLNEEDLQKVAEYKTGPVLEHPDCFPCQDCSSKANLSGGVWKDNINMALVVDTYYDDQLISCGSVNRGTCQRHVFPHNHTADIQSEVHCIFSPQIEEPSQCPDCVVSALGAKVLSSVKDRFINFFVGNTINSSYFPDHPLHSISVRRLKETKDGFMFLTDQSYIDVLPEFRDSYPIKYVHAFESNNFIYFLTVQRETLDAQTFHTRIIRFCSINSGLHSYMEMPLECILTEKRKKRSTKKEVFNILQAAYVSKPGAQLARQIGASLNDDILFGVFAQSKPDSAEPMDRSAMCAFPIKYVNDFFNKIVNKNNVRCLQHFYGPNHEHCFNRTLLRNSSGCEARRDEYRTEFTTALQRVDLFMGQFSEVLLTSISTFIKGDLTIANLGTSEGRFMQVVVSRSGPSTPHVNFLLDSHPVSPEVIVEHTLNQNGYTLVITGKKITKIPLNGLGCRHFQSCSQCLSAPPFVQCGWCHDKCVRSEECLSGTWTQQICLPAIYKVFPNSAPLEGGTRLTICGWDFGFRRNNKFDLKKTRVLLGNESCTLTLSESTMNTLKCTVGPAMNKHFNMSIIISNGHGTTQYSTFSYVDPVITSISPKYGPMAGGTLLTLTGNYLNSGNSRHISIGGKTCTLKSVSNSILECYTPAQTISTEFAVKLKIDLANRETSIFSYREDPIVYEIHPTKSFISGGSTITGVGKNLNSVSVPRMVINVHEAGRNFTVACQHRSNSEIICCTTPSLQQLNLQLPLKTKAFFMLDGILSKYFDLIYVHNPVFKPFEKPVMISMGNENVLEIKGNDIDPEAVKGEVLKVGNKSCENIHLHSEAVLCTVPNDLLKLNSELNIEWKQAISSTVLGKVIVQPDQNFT

B1: Fab VH6-1_IGHD3-3*01_IGHJ4*01 & V4-3_IGLJ4*01 (Fab, V domains shown)
VH: QVQLQQSGPGLVKPSQTLSLTCAISGDSVSSNSAAWNWIRQSPSRGLEWLGRTYYRSKWYNDYAVSVKSRITINPDTSKNQFSLQLNSVTPEDTAVYYCAREYYDFWSGYYTDYFDYWGQGTLVTVSS
VL: QPVLTQPTSLSASPGASARLTCTLRSGINLGSYRIFWYQQKPESPPRYLLSYYSDSSKHQGSGVPSRFSGSKDASSNAGILVISGLQSEDEADYYCMIWHSSASFVFGGGTQLIIL
notes: Tested as a purified germline Fab made in E. coli; The VH was cloned into plasmid A (CH1 constant region, His6 and Flag tags) and the lambda VL into plasmid E (lambda CL)
Take B1: the ECL signal turned out to be 440 in [1]; 325 in [2]; 1530 in assay [3]; 545 in assay [4]; 541 in assay [5]; 596 in assay [6]. Besides, the ECL signal in assay [7] was found to be 621.

B2: Fab VH1-46_IGHD6-13*01_IGHJ4*01 & O1_IGKJ1*01 (Fab, V domains shown)
VH: QVQLVQSGAEVKKPGASVKVSCKASGYTFTSYYMHWVRQAPGQGLEWMGIINPSGGSTSYAQKFQGRVTMTRDTSTSTVYMELSSLRSEDTAVYYCAREGYSSSWYDYFDYWGQGTLVTVSS
VL: DIVMTQTPLSLPVTPGEPASISCRSSQSLLDSDDGNTYLDWYLQKPGQSPQLLIYTLSYRASGVPDRFSGSGSGTDFTLKISRVEAEDVGVYYCMQRIEFPSWTFGQGTKVEIKR
notes: Germline library Fab expressed in E. coli; VH was cloned into Plasmid A (CH1 constant region, His6 and Flag tags); The kappa VL was cloned into Plasmid C (kappa CL)
Regarding B2, the ECL signal in assay [8] was 660; in assay [9] it was 1150; in assay [10], 274; in [11], 317; in assay [12], 212; in assay [13], 234. Further, the ECL signal in [14] was 277.

B3: Fab VH1-46_IGHD3-10*01_IGHJ4*01 & B3_IGKJ1*01 (Fab, V domains shown)
VH: QVQLVQSGAEVKKPGASVKVSCKASGYTFTSYYMHWVRQAPGQGLEWMGIINPSGGSTSYAQKFQGRVTMTRDTSTSTVYMELSSLRSEDTAVYYCAREYYYGSGSYYNDYFDYWGQGTLVTVSS
VL: not shown
notes: Tested as a Fab made in E. coli; VH was cloned into Plasmid A (CH1 constant region, His6 and Flag tags); The kappa VL was cloned into Plasmid C (kappa CL)
As for B3, the ECL signal in assay [15] was 363; in assay [16], 312; in [17] it was 203; in assay [18], 317; in assay [19], 215.
